We go through three molecules from paper PMC5499551.

Where two headings read alike, the source gives them in different places.

Test in all cases: EMSA
Data set [1] deals with T1, SOX9 (UniProt P48436 1-509).
Data set [2] has as its target DMRT1 (mouse, UniProt Q9QZ59 1-374).
Data set [3] addresses GATA4 (mouse, UniProt Q08369 1-441).
Data set [4] addresses T1, SOX9. This is another data set of the same source.

T1 sequence (P48436 whole entry): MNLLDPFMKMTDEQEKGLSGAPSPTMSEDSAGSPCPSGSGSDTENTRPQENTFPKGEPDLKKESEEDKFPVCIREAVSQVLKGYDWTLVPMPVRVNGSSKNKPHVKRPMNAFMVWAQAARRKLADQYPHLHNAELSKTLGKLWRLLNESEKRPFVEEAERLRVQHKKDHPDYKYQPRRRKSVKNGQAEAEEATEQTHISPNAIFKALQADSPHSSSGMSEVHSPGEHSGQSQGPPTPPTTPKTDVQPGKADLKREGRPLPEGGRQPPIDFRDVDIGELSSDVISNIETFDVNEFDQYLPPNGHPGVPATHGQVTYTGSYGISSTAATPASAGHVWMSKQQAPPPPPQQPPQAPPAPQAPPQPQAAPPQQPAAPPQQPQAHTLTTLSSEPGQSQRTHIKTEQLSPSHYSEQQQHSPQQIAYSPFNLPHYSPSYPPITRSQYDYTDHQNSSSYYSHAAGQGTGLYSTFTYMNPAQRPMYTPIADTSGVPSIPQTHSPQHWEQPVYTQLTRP
DMRT1, sequence (Q9QZ59 whole entry): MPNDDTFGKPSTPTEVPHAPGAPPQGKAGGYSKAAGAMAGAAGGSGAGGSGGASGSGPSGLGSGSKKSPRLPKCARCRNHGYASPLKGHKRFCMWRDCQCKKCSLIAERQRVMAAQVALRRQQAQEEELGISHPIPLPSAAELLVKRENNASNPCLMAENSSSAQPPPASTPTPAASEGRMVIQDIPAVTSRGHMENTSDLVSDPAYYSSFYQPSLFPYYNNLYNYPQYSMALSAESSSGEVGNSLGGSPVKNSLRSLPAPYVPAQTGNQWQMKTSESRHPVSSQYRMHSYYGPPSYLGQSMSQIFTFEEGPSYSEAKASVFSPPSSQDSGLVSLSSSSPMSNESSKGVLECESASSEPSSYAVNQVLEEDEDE
GATA4, sequence (Q08369 whole entry): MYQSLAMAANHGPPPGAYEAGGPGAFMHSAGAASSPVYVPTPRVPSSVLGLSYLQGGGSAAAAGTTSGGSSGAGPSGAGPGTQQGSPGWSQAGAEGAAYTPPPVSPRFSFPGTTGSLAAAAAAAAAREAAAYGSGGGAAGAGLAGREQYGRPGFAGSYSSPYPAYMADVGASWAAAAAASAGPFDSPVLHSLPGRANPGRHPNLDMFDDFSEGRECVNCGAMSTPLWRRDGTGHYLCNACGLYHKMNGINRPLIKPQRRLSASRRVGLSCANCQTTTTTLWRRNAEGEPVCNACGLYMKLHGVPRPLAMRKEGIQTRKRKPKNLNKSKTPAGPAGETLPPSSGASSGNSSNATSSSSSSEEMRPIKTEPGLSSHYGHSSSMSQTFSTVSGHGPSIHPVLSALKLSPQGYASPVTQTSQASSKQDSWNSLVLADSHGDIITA

B1: Lmo4 (dsDNA)
DNA 1: GGCATCTCCCATTATTGTTCCAAATCTCATTTCATTTTGAA
DNA 2: TTCAAAATGAAATGAGATTTGGAACAATAATGGGAGATGCC
As for B1, the binding result was “binds” in data set [1], “no binding” in data set [2] and “binds” in data set [3].

B2: Mrpl45 (dsDNA)
DNA 1: GGGTTTTTTTCACCGATTGTAAATAAGGTGTAACAATGTGTTAAGGAACCAGGA
DNA 2: TCCTGGTTCCTTAACACATTGTTACACCTTATTTACAATCGGTGAAAAAAACCC
Consider B2, for which the binding result in data set [1], in data set [2] and in data set [3] was “binds” throughout.

B3: Lats2 (dsDNA)
DNA 1: GGCCGAGCGGGACATTCGCTACATTGTTGGCATTCCACGGGCG
DNA 2: CGCCCGTGGAATGCCAACAATGTAGCGAATGTCCCGCTCGGCC
For the molecule B3, the binding result in data set [4] is “binds”; in data set [2], “binds”; in data set [3], “no binding”.
